These results are taken from patent US20060099684A1.

The target of the test is activated type I collagenase. The test can be described thus: cell-based or functional assay.

As to “T2N (three N-terminal disulfide-bonded loops of human TIMP-2, C-terminal His-tag, expressed in Pichia pastoris) (from UniProt P16035 27-153)”, the IC50 of inhibition of MMP activity (quantitative radiometric 14C-collagen film assay) is 7.5 nM.
